How the values were obtained:
[1] = target: T1, hIL-4Rα on cells (human, UniProt P24394 26-825); assay: cell-based or functional assay
T1 sequence: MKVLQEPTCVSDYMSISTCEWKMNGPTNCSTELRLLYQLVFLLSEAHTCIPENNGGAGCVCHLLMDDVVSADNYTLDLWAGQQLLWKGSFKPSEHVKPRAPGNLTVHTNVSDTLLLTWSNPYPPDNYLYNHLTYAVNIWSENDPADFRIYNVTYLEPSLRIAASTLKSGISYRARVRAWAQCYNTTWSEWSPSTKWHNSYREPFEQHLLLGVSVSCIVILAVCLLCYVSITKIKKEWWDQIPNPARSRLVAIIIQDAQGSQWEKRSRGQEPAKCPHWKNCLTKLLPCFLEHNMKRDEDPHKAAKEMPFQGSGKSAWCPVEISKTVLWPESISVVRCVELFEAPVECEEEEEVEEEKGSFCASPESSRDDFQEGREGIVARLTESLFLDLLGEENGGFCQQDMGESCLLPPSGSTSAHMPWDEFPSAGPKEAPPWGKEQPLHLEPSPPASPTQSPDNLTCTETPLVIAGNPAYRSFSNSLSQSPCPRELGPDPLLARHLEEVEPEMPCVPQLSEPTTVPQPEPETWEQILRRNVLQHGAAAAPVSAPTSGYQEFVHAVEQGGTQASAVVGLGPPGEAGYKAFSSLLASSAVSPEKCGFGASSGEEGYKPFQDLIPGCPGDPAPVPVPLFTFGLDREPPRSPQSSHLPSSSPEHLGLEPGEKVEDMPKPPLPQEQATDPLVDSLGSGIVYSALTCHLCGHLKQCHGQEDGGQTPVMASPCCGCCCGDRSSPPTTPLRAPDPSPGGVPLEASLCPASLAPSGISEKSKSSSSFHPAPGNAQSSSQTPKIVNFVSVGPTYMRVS

[2] = target: T1, hIL-4Rα on cells; assay: cell-based or functional assay; remark: listed apart in the source
[3] = target: T1, hIL-4Rα on cells; assay: FACS on HEK293 cells, competitor biotin-hIL-4;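 note: HEK293 cells stably co-expressing hIL-13Rα and hIL-4Rα, stained for 1 h at 4 °C, read-out as mean fluorescence intensity by flow cytometry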
Description: (§1) Briefly, HEK293 previously transduced to stably express both hIL-13Rα and hIL-4Rα were cultured and harvested. Cells were seeded at 200,000 cells in 100 uL per well. Cells were washed and the supernatant discarded. […] The cells were stained in this mixture at 4° C. for 1 hour. […] Cells were incubated 4° C. for 1 hour, protected from light. Cells were then washed and the MFI of cells in each well were recorded by FACS using a BD FACSCanto II. Subsequent data were analyzed using GraphPad Prism.

[4] = target: T2, cynomolgus monkey IL-4Rα (cynomolgus monkey, UniProt P24394 26-231 (human entry), limits assumed); assay: SPR, Carterra LSA;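 note: antibodies captured on an anti-human Fc sensor chip, antigen injected at several concentrations, association and dissociation rates fitted with a 1:1 Langmuir model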
T2 construct: also called Cyno IL-4Rα; cyIL-4Rα
T2 chain: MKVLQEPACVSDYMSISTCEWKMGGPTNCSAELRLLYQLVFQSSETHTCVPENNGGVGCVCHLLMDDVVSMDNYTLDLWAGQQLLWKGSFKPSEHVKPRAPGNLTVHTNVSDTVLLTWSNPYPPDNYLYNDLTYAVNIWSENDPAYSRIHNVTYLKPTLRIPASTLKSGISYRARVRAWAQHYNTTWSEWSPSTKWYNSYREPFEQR

[5] = target: T3, human IL-4Rα (human, UniProt P24394 26-232); assay: SPR, Carterra LSA;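 note: antibodies captured on an anti-human Fc sensor chip, antigen injected at several concentrations, association and dissociation rates fitted with a 1:1 Langmuir model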
T3 construct: also called Hu IL-4Rα; hIL-4Rα
T3 sequence: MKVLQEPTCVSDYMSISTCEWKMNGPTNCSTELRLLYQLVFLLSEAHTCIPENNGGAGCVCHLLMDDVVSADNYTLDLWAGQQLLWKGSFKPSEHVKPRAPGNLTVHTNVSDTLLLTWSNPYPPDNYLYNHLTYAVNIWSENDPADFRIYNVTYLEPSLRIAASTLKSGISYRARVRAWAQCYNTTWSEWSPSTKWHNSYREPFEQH

[6] = target: T1, hIL-4Rα on cells; assay: FACS on HEK293 cells, competitor biotin-hIL-13;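 note: stably transduced cells co-expressing both receptor chains, stained cold, with cell-bound signal read as mean fluorescence intensity by flow cytometry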
Description: as §1

[7] = target: T1, hIL-4Rα on cells; assay: cell-based or functional assay; remark: listed apart in the source

Binder | Relative Inhibition of IL-4 induced TF-1 Proliferation IC50 [1] | Relative Inhibition of IL-13 induced TF-1 Proliferation IC50 [1] | Relative Inhibition of IL-4 induced pSTAT6 IC50 [2] | Relative Inhibition of IL-13 induced pSTAT6 IC50 [2] | Relative Blockade of IL-4 Binding IC50 [3] | KD Relative to Dupilumab [4] | Kd [4] | KD Relative to Dupilumab [5] | Kd [5] | Relative Blockade of IL-13 Binding IC50 [6] | Relative Inhibition of IL-4 induced TARC IC50 [7] | Relative Inhibition of IL-13 induced TARC IC50 [7]
Construct 8 (mAb417) (antibody, IgG4, V domains shown, VH/VL only) VH: EVQLVESGGGLEQPGGSLRLSCAGSGFTFRDFAMTWVRQAPGKGLEWVSSISGSGDNIYYADSVKGRFTISRDNSKNTLYLQMNSLRAEDTAVYYCAKDRLSVTVRPRYYGLDVWGQGTTVTVSS VL: DIVMTQSPLSLPVTPGEPASISCRSTQSLLYSIGKNYVDWYLQKSGQSPQLLIYLGNNRATGVPDRFSGSGSGTDFTLKISRVEAEDVGFYYCMQALTTPYAFGQGTKLEIK | 0.734 relative to dupilumab | 1.47 relative to dupilumab | 1.01 relative to dupilumab | 2.1 relative to dupilumab | 1.01 relative to dupilumab | 0.25 | 157 nM | 0.83 | 0.0094 nM | 0.953 relative to dupilumab | 1.11 relative to dupilumab | 1.05 relative to dupilumab
Construct 11 (mAb420) (antibody, IgG4, V domains shown, VH/VL only) VH: EVQLVESGGGLEQPGGSLRLSCAGSGFTFRDFAMTWVRQAPGKGLEWVSSISGDGSNTYYADSVKGRFTISRDNSKNTLYLQMNSLRAEDTAVYYCAKDRLSKTIRPRYYGLDVWGQGTTVTVSS VL: DIVMTQSPLSLPVTPGEPASISCRSSQSVLYSIGYNYVDWYLQKSGQSPQLLIYLGNKRASGVPDRFSGSGSGTDFTLKISRVEAEDVGFYYCMQSLQTPYTFGQGTKLEIK | 0.455 relative to dupilumab | 1.72 relative to dupilumab | 0.638 relative to dupilumab | 0.924 relative to dupilumab | 0.977 relative to dupilumab | 0.15 | 92.2 nM | 1.17 | 0.0132 nM | 0.928 relative to dupilumab | 0.609 relative to dupilumab | 0.877 relative to dupilumab
Construct 16 (mAb424) (antibody, IgG4, V domains shown, VH/VL only) VH: EVQLVESGGGLEQPGGSLRLSCAGSGFTFRTYAMTWVRQAPGKGLEWVSSISGSGDNIYYADSVKGRFTISRDNSKNTLYLQMNSLRAEDTAVYYCAKDRLSVTIRPRYYGLDVWGQGTTVTVSS VL: DIVMTQSPLSLPVTPGEPASISCTASQSLLYSIGYNYVDWYLQKSGQSPQLLIYLGNKRASGVPDRFSGSGSGTDFTLKISRVEAEDVGFYYCMQSLTSPYTFGQGTKLEIK | 1.04 relative to dupilumab | 1.44 relative to dupilumab | 0.825 relative to dupilumab | 1.41 relative to dupilumab | 0.895 relative to dupilumab | 0.14 | 89.3 nM | 1.4 | 0.0158 nM | 0.904 relative to dupilumab | 1.63 relative to dupilumab | 1.03 relative to dupilumab
Construct 9 (mAb418) (antibody, IgG4, V domains shown, VH/VL only) VH: EVQLVESGGGLEQPGGSLRLSCAGSGFTFTDFAMTWVRQAPGKGLEWVSSISGSGGNIYYADSVKGRFTISRDNSKNTLYLQMNSLRAEDTAVYYCAKDRLSVTVRPRYYGLDVWGQGTTVTVSS VL: DIVMTQSPLSLPVTPGEPASISCRSSQSLLYSIGKNYVDWYLQKSGQSPQLLIYLGNNRATGVPDRFSGSGSGTDFTLKISRVEAEDVGFYYCMQALGSPYTFGQGTKLEIK | 0.503 relative to dupilumab | 1.34 relative to dupilumab | 0.761 relative to dupilumab | 1.31 relative to dupilumab | 0.757 relative to dupilumab | 0.36 | 228 nM | 0.76 | 0.00862 nM | 0.911 relative to dupilumab | 0.593 relative to dupilumab | 0.942 relative to dupilumab
Construct 12 (mAb421) (antibody, IgG4, V domains shown, VH/VL only) VH: EVQLVESGGGLEQPGGSLRLSCAGSGFTFRDFAMTWVRQAPGKGLEWVSSISGSGGNIYYADSVKGRFTISRDNSKNTLYLQMNSLRAEDTAVYYCAKDRLSKTIRPRYYGLDVWGQGTTVTVSS VL: DIVMTQSPLSLPVTPGEPASISCRSSQSVLYSIGYNYVDWYLQKSGQSPQLLIYLGNKRASGVPDRFSGSGSGTDFTLKISRVEAEDVGFYYCMQSLTSPYTFGQGTKLEIK | 0.526 relative to dupilumab | 0.87 relative to dupilumab | 0.457 relative to dupilumab | 0.672 relative to dupilumab | 1.07 relative to dupilumab | 0.02 | 15.1 nM | 1.91 | 0.0215 nM | 0.921 relative to dupilumab | 0.38 relative to dupilumab | 0.521 relative to dupilumab
Construct 10 (mAb419) (antibody, IgG4, V domains shown, VH/VL only) VH: EVQLVESGGGLEQPGGSLRLSCAGSGFTFRDFAMTWVRQAPGKGLEWVSSISGDGSNTYYADSVKGRFTISRDNSKNTLYLQMNSLRAEDTAVYYCAKDRLSKTIRPRYYGLDVWGQGTTVTVSS VL: DIVMTQSPLSLPVTPGEPASISCRSSQSLLYSIGYNYVDWYLQKSGQSPQLLIYLGNKRASGVPDRFSGSGSGTDFTLKISRVEAEDVGFYYCMQALGSPYTFGQGTKLEIK | 0.431 relative to dupilumab | 1.39 relative to dupilumab | 0.599 relative to dupilumab | 1.38 relative to dupilumab | 0.992 relative to dupilumab | 0.18 | 114 nM | 1.1 | 0.0125 nM | 0.922 relative to dupilumab | 0.556 relative to dupilumab | 0.856 relative to dupilumab
Construct 17 (mAb425) (antibody, IgG4, V domains shown, VH/VL only) VH: EVQLVESGGGLEQPGGSLRLSCAGSGFTFRDFAMTWVRQAPGKGLEWVSSISGSGSSTYYADSVKGRFTISRDNSKNTLYLQMNSLRAEDTAVYYCAKDRLSVTVRPRYYGLDVWGQGTTVTVSS VL: DIVMTQSPLSLPVTPGEPASISCTASQSLLYSIGYNYVDWYLQKSGQSPQLLIYLGSKRASGVPDRFSGSGSGTDFTLKISRVEAEDVGFYYCMQAYNSPYTFGQGTKLEIK | 0.729 relative to dupilumab | 0.844 relative to dupilumab | 0.876 relative to dupilumab | 0.863 relative to dupilumab | 1.11 relative to dupilumab | 0.09 | 58.3 nM | 1.49 | 0.0169 nM | 1.17 relative to dupilumab | 0.491 relative to dupilumab | 0.789 relative to dupilumab

From patent US20260193366A1 (APOGEE THERAPEUTICS, published 2026)
